{
  "source": "paper PMC6148051",
  "about": "“p53 cooperates with SIRT6 to regulate cardiolipin de novo biosynthesis” (Cell Death & Disease, 2018)",
  "binders": {"B1": {"name": "GST-SIRT6 core domain, 35–276 aa (domain or fragment, UniProt Q8N6T7 35-276, looked up)", "chain": "WELARLVWQSSSVVFHTGAGISTASGIPDFRGPHGVWTMEERGLAPKFDTTFESARPTQTHMALVQLERVGLLRFLVSQNVDGLHVRSGFPRDKLAELHGNMFVEECAKCKTQYVRDTVVGTMGLKATGRLCTVAKARGLRACRGELRDTILDWEDSLPDRDLALADEASRNADLSITLGTSLQIRPSGNLPLATKRRGGRLVIVNLQPTKHDRHADLRIHGYVDEVMTRLMKHLGLEIPAW", "notes": "source: bacteria, purified (glutathione-Sepharose 4B)"}},
  "target": "T1, His-tagged p53 protein (UniProt P04637 1-393)",
  "T1 construct": "tumor suppressor p53, cloned into pET28b+; also called His-p53; source: bacteria (pET28b+), purified (Ni(II)-Sepharose)",
  "T1 sequence (P04637 whole entry, the tested form may be a part)": "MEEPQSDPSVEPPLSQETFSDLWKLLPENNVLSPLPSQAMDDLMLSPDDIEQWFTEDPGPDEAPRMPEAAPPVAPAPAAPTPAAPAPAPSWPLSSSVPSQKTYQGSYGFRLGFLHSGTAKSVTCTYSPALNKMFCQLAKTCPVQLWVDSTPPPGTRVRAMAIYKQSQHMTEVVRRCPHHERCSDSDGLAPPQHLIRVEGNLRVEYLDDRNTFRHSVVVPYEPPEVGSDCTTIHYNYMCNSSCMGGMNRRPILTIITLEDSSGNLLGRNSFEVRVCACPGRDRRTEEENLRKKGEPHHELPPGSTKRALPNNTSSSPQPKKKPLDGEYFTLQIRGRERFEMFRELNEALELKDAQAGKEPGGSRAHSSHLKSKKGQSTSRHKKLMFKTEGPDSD",
  "experiment": "pull-down; GST or GST fusion proteins on glutathione-Sepharose 4B beads incubated with purified His-tagged proteins in TEN buffer (10 mM Tris-HCl, pH 8.0, 1 mM EDTA, 100 mM NaCl), 4 h, 4 °C; blot with anti-His or anti-GST, Coomassie staining",
  "conditions": "both partners purified",
  "data": [
    {"binder": "B1", "values": [
      {"measurement": "binding result", "result": "binds"}
    ]}
  ]
}
